Assay results as given in patent US20090170751A1.

Target: Plasma fibronectin, affinity purified from human plasma (human) (UniProt P02751)
Experiment: cell-based or functional assay

Chain of Plasma fibronectin, affinity purified from human plasma (human) (P02751 32-2477): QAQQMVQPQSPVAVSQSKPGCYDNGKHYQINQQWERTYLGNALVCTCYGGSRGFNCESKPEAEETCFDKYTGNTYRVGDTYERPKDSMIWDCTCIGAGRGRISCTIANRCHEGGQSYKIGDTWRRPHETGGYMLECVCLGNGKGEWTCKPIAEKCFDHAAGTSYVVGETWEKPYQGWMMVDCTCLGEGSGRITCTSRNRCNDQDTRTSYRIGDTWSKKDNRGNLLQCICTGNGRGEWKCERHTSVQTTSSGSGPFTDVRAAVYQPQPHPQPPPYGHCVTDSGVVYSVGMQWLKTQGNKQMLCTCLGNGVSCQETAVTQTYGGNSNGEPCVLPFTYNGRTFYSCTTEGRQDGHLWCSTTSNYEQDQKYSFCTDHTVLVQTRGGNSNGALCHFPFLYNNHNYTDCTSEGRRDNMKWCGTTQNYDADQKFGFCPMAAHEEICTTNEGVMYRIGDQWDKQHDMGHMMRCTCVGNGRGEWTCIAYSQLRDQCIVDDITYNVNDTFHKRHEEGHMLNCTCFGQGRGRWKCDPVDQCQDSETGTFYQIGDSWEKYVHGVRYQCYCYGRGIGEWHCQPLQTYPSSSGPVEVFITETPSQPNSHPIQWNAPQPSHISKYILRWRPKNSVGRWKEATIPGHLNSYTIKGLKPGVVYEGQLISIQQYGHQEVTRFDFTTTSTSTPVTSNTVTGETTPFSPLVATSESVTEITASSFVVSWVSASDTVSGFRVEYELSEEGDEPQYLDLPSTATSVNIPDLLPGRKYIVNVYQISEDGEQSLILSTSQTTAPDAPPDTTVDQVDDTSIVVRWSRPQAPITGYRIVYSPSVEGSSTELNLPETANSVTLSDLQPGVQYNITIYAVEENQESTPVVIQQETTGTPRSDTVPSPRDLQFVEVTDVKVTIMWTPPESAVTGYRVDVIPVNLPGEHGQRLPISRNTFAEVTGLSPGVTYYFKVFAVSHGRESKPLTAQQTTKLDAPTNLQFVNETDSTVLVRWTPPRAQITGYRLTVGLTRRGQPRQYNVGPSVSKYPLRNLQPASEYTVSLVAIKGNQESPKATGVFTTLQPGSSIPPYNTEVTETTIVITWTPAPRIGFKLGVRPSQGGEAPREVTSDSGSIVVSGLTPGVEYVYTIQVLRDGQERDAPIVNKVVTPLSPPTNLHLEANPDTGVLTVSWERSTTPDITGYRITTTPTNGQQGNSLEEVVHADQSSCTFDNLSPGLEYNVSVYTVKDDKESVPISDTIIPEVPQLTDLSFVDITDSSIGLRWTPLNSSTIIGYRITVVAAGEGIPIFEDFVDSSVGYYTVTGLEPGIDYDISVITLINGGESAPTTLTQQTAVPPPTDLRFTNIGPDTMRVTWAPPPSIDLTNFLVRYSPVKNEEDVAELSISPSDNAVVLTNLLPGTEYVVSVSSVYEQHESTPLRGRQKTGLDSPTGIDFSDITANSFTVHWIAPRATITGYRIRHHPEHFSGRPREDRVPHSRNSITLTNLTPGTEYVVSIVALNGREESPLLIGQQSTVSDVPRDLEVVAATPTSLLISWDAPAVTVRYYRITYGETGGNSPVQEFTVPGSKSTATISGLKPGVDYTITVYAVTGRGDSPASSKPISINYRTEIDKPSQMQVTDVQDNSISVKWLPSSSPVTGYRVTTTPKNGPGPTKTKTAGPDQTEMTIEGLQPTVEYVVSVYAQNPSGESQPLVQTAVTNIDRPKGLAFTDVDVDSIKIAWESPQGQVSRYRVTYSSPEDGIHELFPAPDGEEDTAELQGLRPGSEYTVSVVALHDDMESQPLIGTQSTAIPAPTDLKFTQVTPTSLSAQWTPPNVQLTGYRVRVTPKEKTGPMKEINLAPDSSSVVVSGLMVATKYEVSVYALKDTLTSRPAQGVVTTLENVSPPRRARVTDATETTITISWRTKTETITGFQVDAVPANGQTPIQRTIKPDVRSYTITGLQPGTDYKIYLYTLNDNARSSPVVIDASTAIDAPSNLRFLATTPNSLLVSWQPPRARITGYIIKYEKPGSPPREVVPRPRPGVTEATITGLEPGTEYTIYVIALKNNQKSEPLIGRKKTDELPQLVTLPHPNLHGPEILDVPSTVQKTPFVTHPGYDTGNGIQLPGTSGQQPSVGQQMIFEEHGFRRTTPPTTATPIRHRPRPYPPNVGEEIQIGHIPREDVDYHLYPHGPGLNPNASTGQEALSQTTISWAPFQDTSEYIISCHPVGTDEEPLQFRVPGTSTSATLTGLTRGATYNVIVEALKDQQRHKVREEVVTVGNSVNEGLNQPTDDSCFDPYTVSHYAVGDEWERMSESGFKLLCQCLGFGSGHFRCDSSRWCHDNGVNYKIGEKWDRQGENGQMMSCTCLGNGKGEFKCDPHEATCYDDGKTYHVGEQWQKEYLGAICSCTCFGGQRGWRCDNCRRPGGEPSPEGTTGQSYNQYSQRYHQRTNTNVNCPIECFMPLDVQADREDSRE
Chain of Recombinant Anastellin, P02751 631-703 (P02751 other isoform, or with tags, fused parts or gaps limits assumed): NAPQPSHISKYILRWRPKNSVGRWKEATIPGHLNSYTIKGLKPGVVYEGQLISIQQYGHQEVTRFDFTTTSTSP

fibronectin aggregation, increase in absorbance at 600 nm: > 20 µM
Substance: Recombinant Anastellin, P02751 631-703
